Results published in the supplement of paper PMC5998384.

How the values were obtained:
[1] = test system: HeLa Kyoto; assay: solubility in G1/S (NP-40 vs SDS abundance) (log2 ratio); higher = more soluble; conditions: cell cycle stage: G1/S
[2] = test system: HeLa Kyoto; assay: solubility change mitosis vs G1/S (difference of NP-40 vs SDS log2 ratios) (log2 ratio difference); higher = more soluble in mitosis
[3] = test system: HeLa Kyoto; assay: thermal stability score vs G1/S (z-score of summed log2 fold changes over temperatures); higher = more thermally stable than in G1/S
[4] = cell cycle stage: early G1 (4.5 h after nocodazole release)
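Wherever solubility change mitosis vs G1/S (difference of NP-40 vs SDS log2 ratios) is given: synchronized HeLa Kyoto cells (double thymidine block for G1/S, nocodazole release for mitosis), protein amounts in NP-40 versus SDS lysates quantified by mass spectrometry, three biological replicates.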
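Wherever solubility in G1/S (NP-40 vs SDS abundance) is given: HeLa Kyoto cells arrested at G1/S by double thymidine block, proteins quantified by TMT10plex mass spectrometry in mild NP-40 versus SDS extracts, three biological replicates.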
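Wherever thermal stability score vs G1/S (z-score of summed log2 fold changes over temperatures) is given: synchronized HeLa Kyoto cells, proteins quantified by TMT10plex mass spectrometry, three biological replicates, mitosis taken 0.5 h after nocodazole release, G1/S directly after double thymidine block.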

With “MSSCVSSQPSSNRAAPQDELGGRGSSSSESQKPCEALRGLSSLSIHLGMESFIVVTECEPGCAVDLGLARDRPLEADGQEVPLDTSGSQARPHLSGRKLSLQERSQGGLAAGGSLDMNGRCICPSLPYSPVSSPQSSPRLPRRPTVESHHVSITGMQDCVQLNQYTLKDEIGKGSYGVVKLAYNENDNTYYAMKVLSKKKLIRQAGFPRRPPPRGTRPAPGGCIQPRGPIEQVYQEIAILKKLDHPNVVKLVEVLDDPNEDHLYMVFELVNQGPVMEVPTLKPLSEDQARFYFQDLIKGIEYLHYQKIIHRDIKPSNLLVGEDGHIKIADFGVSNEFKGSDALLSNTVGTPAFMAPESLSETRKIFSGKALDVWAMGVTLYCFVFGQCPFMDERIMCLHSKIKSQALEFPDQPDIAEDLKDLITRMLDKNPESRIVVPEIKLHPWVTRHGAEPLPSEDENCTLVEVTEEEVENSVKHIPSLATVILVKTMIRKRSFGNPFEGSRREERSLSAPGNLLTKKPTRECESLSELKEARQRRQPPGHRPAPRGGGGSALVRGSPCVESCWAPAPGSPARMHPLRPEEAMEPE [CAMKK2]” the “solubility in G1/S (log2)” value [1] was 0.289, the “solubility change mitosis (log2)” value [2] was -0.0691 and the thermal stability score [3, 4] was -0.348. It also gave a thermal stability score ([3]; cell cycle stage: mitosis) of -0.0506.
In the case of “MGDMKTPDFDDLLAAFDIPDPTSLDAKEAIQTPSEENESPLKPPGICMDESVSLSHSGSAPDVPAVSVIVKNTSRQESFEAEKDHITPSLLHNGFRGSDLPPDPHNCGKFDSTFMNGDSARSFPGKLEPPKSEPLPTFNQFSPISSPEPEDPIKDNGFGIKPKHSDSYFPPPLGCGAVGGPVLEALAKFPVPELHMFDHFCKKEPKPEPLPLGSQQEHEQSGQNTVEPHKDPDATRFFGEALEFNSHPSNSIGESKGLARELGTCSSVPPRQRLKPAHSKLSSCVAALVALQAKRVASVTKEDQPGHTKDLSGPTKESSKGSPKMPKSPKSPRSPLEATRKSIKPSDSPRSICSDSSSKGSPSVAASSPPAIPKVRIKTIKTSSGEIKRTVTRILPDPDDPSKSPVGSPLGSAIAEAPSEMPGDEVPVEEHFPEAGTNSGSPQGARKGDESMTKASDSSSPSCSSGPRVPKGAAPGSQTGKKQQSTALQASTLAPANLLPKAVHLANLNLVPHSVAASVTAKSSVQRRSQPQLTQMSVPLVHQVKKAAPLIVEVFNKVLHSSNPVPLYAPNLSPPADSRIHVPASGYCCLECGDAFALEKSLSQHYGRRSVHIEVLCTLCSKTLLFFNKCSLLRHARDHKSKGLVMQCSQLLVKPISADQMFVSAPVNSTAPAAPAPSSSPKHGLTSGSASPPPPALPLYPDPVRLIRYSIKCLECHKQMRDYMVLAAHFQRTTEETEGLTCQVCQMLLPNQCSFCAHQRIHAHKSPYCCPECGVLCRSAYFQTHVKENCLHYARKVGYRCIHCGVVHLTLALLKSHIQERHCQVFHKCAFCPMAFKTASSTADHSATQHPTQPHRPSQLIYKCSCEMVFNKKRHIQQHFYQNVSKTQVGVFKCPECPLLFVQKPELMQHVKSTHGVPRNVDELSSLQSSADTSSSRPGSRVPTEPPATSVAARSSSLPSGRWGRPEAHRRVEARPRLRNTGWTCQECQEWVPDRESYVSHMKKSHGRTLKRYPCRQCEQSFHTPNSLRKHIRNNHDTVKKFYTCGYCTEDSPSFPRPSLLESHISLMHGIRNPDLSQTSKVKPPGGHSPQVNHLKRPVSGVGDAPGTSNGATVSSTKRHKSLFQCAKCSFATDSGLEFQSHIPQHQVDSSTAQCLLCGLCYTSASSLSRHLFIVHKVRDQEEEEEEEAAAAEMAVEVAEPEEGSGEEVPMETRENGLEECAGEPLSADPEARRLLGPAPEDDGGHNDHSQPQASQDQDSHTLSPQV [ZNF592]”, the “solubility in G1/S (log2)” value [1] is reported as -0.283, the “solubility change mitosis (log2)” value [2] is reported as 0.109 and the thermal stability score [3, 4] is reported as -0.704. The thermal stability score ([3]; cell cycle stage: mitosis) was -1.78.
“MLLAQINRDSQGMTEFPGGGMEAQHVTLCLTEAVTVADGDNLENMEGVSLQAVTLADGSTAYIQHNSKDAKLIDGQVIQLEDGSAAYVQHVPIPKSTGDSLRLEDGQAVQLEDGTTAFIHHTSKDSYDQSALQAVQLEDGTTAYIHHAVQVPQSDTILAIQADGTVAGLHTGDATIDPDTISALEQYAAKVSIDGSESVAGTGMIGENEQEKKMQIVLQGHATRVTAKSQQSGEKAFRCEYDGCGKLYTTAHHLKVHERSHTGDRPYQCEHAGCGKAFATGYGLKSHVRTHTGEKPYRCSEDNCTKSFKTSGDLQKHIRTHTGERPFKCPFEGCGRSFTTSNIRKVHVRTHTGERPYYCTEPGCGRAFASATNYKNHVRIHTGEKPYVCTVPGCDKRFTEYSSLYKHHVVHTHSKPYNCNHCGKTYKQISTLAMHKRTAHNDTEPIEEEQEAFFEPPPGQGEDVLKGSQITYVTGVEGDDVVSTQVATVTQSGLSQQVTLISQDGTQHVNISQADMQAIGNTITMVTQDGTPITVPAHDAVISSAGTHSVAMVTAEGTEGEQVAIVAQDLAAFHTASSEMGHQQHSHHLVTTETRPLTLVATSNGTQIAVQLGEQPSLEEAIRIASRIQQGETPGLDD [ZNF143]” was tested, and the “solubility in G1/S (log2)” value [1] was -0.143, the “solubility change mitosis (log2)” value [2] was 0.313 and the thermal stability score [3, 4] was 0.385. It also gave a thermal stability score ([3]; cell cycle stage: mitosis) of 0.819.
With “MSSECDGGSKAVMNGLAPGSNGQDKATADPLRARSISAVKIIPVKTVKNASGLVLPTDMDLTKICTGKGAVTLRASSSYRETPSSSPASPQETRQHESKPGLEPEPSSADEWRLSSSADANGNAQPSSLAAKGYRSVHPNLPSDKSQDATSSSAAQPEVIVVPLYLVNTDRGQEGTARPPTPLGPLGCVPTIPATASAASPLTFPTLDDFIPPHLQRWPHHSQPARASGSFAPISQTPPSFSPPPPLVPPAPEDLRRVSEPDLTGAVSSTDSSPLLNEVSSSLIGTDSQAFPSVSKPSSAYPSTTIVNPTIVLLQHNREQQKRLSSLSDPVSERRVGEQDSAPTQEKPTSPGKAIEKRAKDDSRRVVKSTQDLSDVSMDEVGIPLRNTERSKDWYKTMFKQIHKLNRDTPEENPYFPTYKFPELPEIQQTSEEDNPYTPTYQFPASTPSPKSEDDDSDLYSPRYSFSEDTKSPLSVPRSKSEMSYIDGEKVVKRSATLPLPARSSSLKSSSERNDWEPPDKKVDTRKYRAEPKSIYEYQPGKSSVLTNEKMSRDISPEEIDLKNEPWYKFFSELEFGKPPPKKIWDYTPGDCSILPREDRKTNLDKDLSLCQTELEADLEKMETLNKAPSANVPQSSAISPTPEISSETPGYIYSSNFHAVKRESDGAPGDLTSLENERQIYKSVLEGGDIPLQGLSGLKRPSSSASTKDSESPRHFIPADYLESTEEFIRRRHDDKEKLLADQRRLKREQEEADIAARRHTGVIPTHHQFITNERFGDLLNIDDTAKRKSGSEMRPARAKFDFKAQTLKELPLQKGDIVYIYKQIDQNWYEGEHHGRVGIFPRTYIELLPPAEKAQPKKLTPVQVLEYGEAIAKFNFNGDTQVEMSFRKGERITLLRQVDENWYEGRIPGTSRQGIFPITYVDVIKRPLVKNPVDYMDLPFSSSPSRSATASPQFSSHSKLITPAPSSLPHSRRALSPEMHAVTSEWISLTVGVPGRRSLALTPPLPPLPEASIYNTDHLALSPRASPSLSLSLPHLSWSDRPTPRSVASPLALPSPHKTYSLAPTSQASLHMNGDGGVHTPSSGIHQDSFLQLPLGSSDSVISQLSDAFSSQSKRQPWREESGQYERKAERGAGERGPGGPKISKKSCLKPSDVVRCLSTEQRLSDLNTPEESRPGKPLGSAFPGSEAEQTERHRGGEQAGRKAARRGGSQQPQAQQRRVTPDRSQTSQDLFSYQALYSYIPQNDDELELRDGDIVDVMEKCDDGWFVGTSRRTKQFGTFPGNYVKPLYL [SORBS1]” the “solubility in G1/S (log2)” value [1] was -0.0532, the “solubility change mitosis (log2)” value [2] was 0.424 and the thermal stability score [3, 4] was -0.134. It also gave a thermal stability score ([3]; cell cycle stage: mitosis) of 4.08.
In the case of “MATIEEIAHQIIEQQMGEIVTEQQTGQKIQIVTALDHNTQGKQFILTNHDGSTPSKVILARQDSTPGKVFLTTPDAAGVNQLFFTTPDLSAQHLQLLTDNSPDQGPNKVFDLCVVCGDKASGRHYGAVTCEGCKGFFKRSIRKNLVYSCRGSKDCIINKHHRNRCQYCRLQRCIAFGMKQDSVQCERKPIEVSREKSSNCAASTEKIYIRKDLRSPLTATPTFVTDSESTRSTGLLDSGMFMNIHPSGVKTESAVLMTSDKAESCQGDLSTLANVVTSLANLGKTKDLSQNSNEMSMIESLSNDDTSLCEFQEMQTNGDVSRAFDTLAKALNPGESTACQSSVAGMEGSVHLITGDSSINYTEKEGPLLSDSHVAFRLTMPSPMPEYLNVHYIGESASRLLFLSMHWALSIPSFQALGQENSISLVKAYWNELFTLGLAQCWQVMNVATILATFVNCLHNSLQQDKMSTERRKLLMEHIFKLQEFCNSMVKLCIDGYEYAYLKAIVLFSPDHPSLENMEQIEKFQEKAYVEFQDYITKTYPDDTYRLSRLLLRLPALRLMNATITEELFFKGLIGNIRIDSVIPHILKMEPADYNSQIIGHSI [NR2C1]”, the “solubility in G1/S (log2)” value [1] is reported as 0.173, the “solubility change mitosis (log2)” value [2] is reported as -0.0241 and the thermal stability score [3, 4] is reported as 0.319. The thermal stability score ([3]; cell cycle stage: mitosis) was 0.185.
